In the assay the target is T1, recombinant MLP (rMLP) C-terminal fusion protein: N-terminal histidine tag fused to residues 279-431 of human … (human).
T1 construct: Expressed in E. coli from pRSETB and purified on a nickel column; ran at 28 kDa; also called rMLP C-terminal protein; recombinant MLP C-terminal protein
T1 chain: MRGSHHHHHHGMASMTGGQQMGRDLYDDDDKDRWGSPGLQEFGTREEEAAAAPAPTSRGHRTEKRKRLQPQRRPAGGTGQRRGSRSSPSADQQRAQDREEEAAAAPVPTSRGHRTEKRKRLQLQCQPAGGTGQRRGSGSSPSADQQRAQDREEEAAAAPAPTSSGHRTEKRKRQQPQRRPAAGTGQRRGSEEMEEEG
Briefly: KD (binding to rMLP); method not described at the table.

For three molecules, Kd results are on record in patent US20170355777A1 (UNIVERSITY OF LEICESTER, published 2017).

Substitutions are numbered along the chain they refer to. Some results are limits rather than exact numbers.

In general, Kd refers to the free concentration of one partner at which half of the binding sites on the other are occupied at equilibrium, for simple one-to-one binding.

B1: anti-MLP monoclonal antibody αMLP Clone B (hybridoma ATCC PTA-121700) (antibody, IgG2a, V domains shown)
VH: EVQLQQSGPELVKPGASVKISCKASGYSFTGFYIHWVKQSHVKSLEWIGRIHPYNGAPTYNQNFKDRARLTVHESSSTAYMEFFGLTSEDSAVYYCARERVYYYGSTYEFDFWGQGTTLTVSS
VL: DVLMTQTPLSLPVSLGDQASISCRSGQSIVHSSGVTYLSWYLQKPGQSPKLLIYKVFYRFSGVPDRFSGSGSGTDFTLKISRVEAEDLGVYYCFQGSHVPPTFGTGTKLELK
notes: also called mAb clone B
In the case of B1, the Kd is less than 1 nM.

B2: anti-MLP monoclonal antibody αMLP Clone 11 (hybridoma ATCC PTA-121699) (antibody, IgG2b, V domains shown)
VH: B1 VH with S28A, V37M, P58T, T59S, R69S, H73D, F84Y, F112S
VL: B1 VL with S32T, A85S, T105A
notes: also called mAb clone 11
With B2, the Kd stood at 0.2 nM.

B3: anti-MLP monoclonal antibody αMLP Clone C (hybridoma ATCC PTA-121701) (antibody, IgG1, V domains shown)
VH: DVKLQESGGGLVQPGGSMKLSCVASGFTFSNYWMNWVRQSPEKGLEWVAEIRLKSNNYAINYAESVKGRFTISRDDSKSSVYLDMNNLRAEDTGIYYCTSYYGSSLYYLDYWGQGTTLTVSS
VL: QIVLTQSPVIMSASPGEKVTISCSASSSVSNMYWYQQKPGSSPKAWIYRTSNLASGVPARFSGSGSGTSYSLTISSMEAEDAATYYCHQYQSYPRTFGAGTKLEIK
notes: also called 2(C); mAb clone C
Take B3: the Kd is less than 1 nM.
